Test results as given in US7737158B2, “Processes for regulating blood glucose in a mammal” (Washington University, priority 2005, dated 2010).
“Also recorded” adds a separate entry of the source.

Columns and labels:
[1] = biological target: T1, mouse Nampt (Mus musculus, UniProt Q99KQ4); experiment: Enzyme-coupled fluorometric assay of immunoprecipitated Nampt-FLAG and recombinant Nampt; assay type: biochemical; set-up: expressed in transfected cells; host or cells: mouse NIH3T3 fibroblasts and mouse HIB-1B preadipocytes (differentiated), stably transfected with pCXN2-Nampt-FLAG; cell extracts or culture supernatant, anti-FLAG immunoprecipitates; conditions: NMN synthesis, 55 min at 37° C., pH8.5; Nampt amount quantified by Western blotting
Protocol: For immunoprecipitation of intracellular Nampt, whole cell extracts were prepared with ice-cold immunoprecipitation (IP) buffer (phosphate buffer saline [pH 7.4], 0.5% NP-40, 1 mM EDTA,1 mM NaF, 10 μM Trichostatin A, 10 mM nicotinamide, 0.5 mM DTT, protease inhibitor cocktail (Roche)) and mixed with agarose beads conjugated with the mouse monoclonal M2 anti-FLAG antibody (F2426, Sigma) for 3-4 hours at 4° C. For immunoprecipitation of extracellular Nampt, HIB-1B culture supernatants were collected after incubating differentiated HIB-1B cells overnight with DMEM without fetal bovine serum but supplemented with 1 μg/ml insulin and 1 nM triodothyronine, filtered through a 0.22-μm PES membrane, concentrated with Amicon Ultra-15 columns (Millipore, MA), and mixed with anti-FLAG beads for 3-4 hours at 4° C. Immunoprecipitates were washed twice with the IP buffer and twice with PBS.
Immunoprecipitates on anti-FLAG beads were incubated in enzymatic reaction buffer (50 mM Tris-HCl (pH8.5), 100 mM NaCl, 0.25 mM Nicotinamide, 10 mM MgSO4, 1.5% Ethanol, 0.5 mM PRPP, 2.0 mM ATP) for 55 min at 37° C. After this reaction, mouse recombinant nicotinamide mononucleotide adenylyltransferase and yeast alcohol dehydrogenase (Sigma) were added at 10 μg/ml as the final concentration for each, and the mixture was incubated for 5 min at 37° C. Supernatants were then collected by spinning down anti-FLAG beads, and autofluorescence of NADH was measured in a Perkin Elmer LS 50B fluorometer (excitation: 340 nm; emission: 460 nm). Immunoprecipitates bound on anti-FLAG beads were extracted with Laemmli's sample buffer, boiled for 5 minutes, and analyzed by Western blotting with anti-Nampt antibodies. The amounts of Nampt used for enzymatic reactions were quantitated compared to the standards of mouse recombinant Nampt.
The immunoprecipitates from the HIB-1B culture supernatants were subjected to enzyme-coupled fluorometric assays (see Revollo et al., J. Biol. Chem., (2004)279, 50754-50763) to compare enzymatic activity of the intracellular and extracellular forms of Nampt. […] The Nampt enzymatic activity of the bacterially produced recombinant Nampt and the intracellular Nampt-FLAG® immunoprecipitated from HIB-1B and NIH3T3 cellular extracts were also measured and their kcat values calculated (see FIG. 16E). […] It is believed that a post-translational modification may be responsible for the altered enzymatic activity of extracellular Nampt produced by brown adipocytes. […] Despite the extensive mass spectrometric analysis of extracellular Nampt, the precise nature of the modification is currently unknown. Taken together, these findings provide strong evidence that Nampt functions as an NAD biosynthetic enzyme both intra- and extracellularly.

[2] = biological target: T1, mouse Nampt; experiment: HPLC detection of Nampt reaction products; assay type: biochemical; set-up: expressed in transfected cells; cell extracts or culture supernatant, anti-FLAG immunoprecipitates; conditions: 37° C.
Protocol: High performance liquid chromatography was used to detect Nampt reaction products. HPLC was performed with Waters 515 pumps and a 2487 detector (Waters, Mass.) with a Supelco LC-18-T column (15 cm×4.6 cm; Supelco, Pa.). The Nampt reaction was conducted at 37° C. for 15 min in 500 μl of reaction buffer (50 mM Tris-HCl [pH 7.5], 10 mM MgCl2, 50 mM nicotinamide, 0.2 mM PRPP) with 50 μg of the recombinant Nampt protein. The reaction was terminated by adding 125 μl of 1 M HClO4. Protein was then precipitated at 18,000 g, and 500 μl of the supernatant was neutralized with 40 μl of 3 M K2CO3. After centrifugation, 100 μl of sample was mixed with 400 μl of Buffer A (50 mM K2PO4/KHPO4, pH 7.0) and loaded into the HPLC system. The products from Nampt reaction were monitored by absorbance at 261 nm.

[3] = biological target: T1, mouse Nampt; experiment: Enzyme-coupled fluorometric assay, kinetic characterization of recombinant Nampt; assay type: biochemical; set-up: expressed in transfected cells; cell extracts or culture supernatant, anti-FLAG immunoprecipitates
Protocol: Enzymatic activities of recombinant Nampt and Nmnat proteins were measured by an enzyme-coupled fluorometric assay (see, e.g., FIG. 4B). In this enzyme-coupled reaction, NAD is converted to NADH by alcohol dehydrogenase, and the fluorescence of NADH is detected in a fluorometer. To establish this assay system, optimal reaction conditions for Nmnat were initially examined by varying ATP and Mg^2+ concentrations and pH of the reaction buffer. The resultant reaction buffer for Nmnat contained 50 mM HEPES [pH 7.4], 0.02% BSA, 12 mM MgCl2, 2 mM ATP, 1.5% ethanol, and 30 μg/ml alcohol dehydrogenase to convert NAD to NADH. To determine the kinetic parameters for Nmnat, 30 ng of purified His-tagged Nmnat and varying concentrations of NMN were added to 1 ml of the reaction buffer. The reactions were run at 37° C. and quenched at six time points by the addition of 250 μl of 0.5 M EDTA. The production of NADH was measured by excitation at 340 nm and emission at 460 nm in a fluorometer. For kinetic characterization of Nampt, 500 ng of His-tagged Nampt and varying concentrations of nicotinamide were reacted at 37° C. in 100 μl of a buffer containing 50 mM Tris-HCl [pH 7.5], 0.02% BSA, 12 mM MgCl2, 2.5 mM ATP, 10 μg/ml His-tagged Nmnat, 0.4 mM phosphoribosyl pyrophosphate (PRPP), 1.5% ethanol, and 30 μg/ml alcohol dehydrogenase. NADH production was measured continuously in a fluorometer.
By using this enzyme-coupled fluorometric assay, kinetic parameters of purified recombinant mouse Nampt and Nmnat for nicotinamide and NMN, respectively, were determined (see, e.g., Table 1). The Lineweaver-Burk plots for these two enzymes are shown, for example, in FIGS. 11A and 11B. […] The Km and Vmax of mouse Nmnat are consistent with previously reported values for human NMNAT-1 (Emanuelli et al., J. Biol. Chem. (2001) 276, 406-412).

[4] = tested on: wild type males; experiment: Blood glucose after intraperitoneal injection of recombinant Nampt in fed wild type mice; assay type: in vivo, mouse; conditions: 1000 pmoles intraperitoneally, fed wild type males, 0, 30, 60 min
Protocol: If the NAD biosynthetic activity of Nampt is responsible for the phenotypes observed in Nampt^+/− mice, the administration of NMN, a product of the Nampt enzymatic reaction, should be able to correct their problems. To test this possibility, the same Nampt^+/− mice that were used for IPGTTs were injected with NMN at a dose of 500 mg/kg body weight intraperitoneally ˜14 hrs prior to IPGTTs. As a control, PBS was injected to the mice ˜14 hrs before conducting previous IPGTTs. […] Because these findings completely contradict the conclusion by Fukuhara et al., the reproducibility of the insulin-mimetic activity of this protein was examined. Here, 1000 pmoles of the bacterially produced recombinant protein of mouse His-tagged Nampt were injected intraperitoneally to fed wild type males. Blood glucose levels were monitored with a glucometer at 0, 30, and 60 min time points after injection.

[5] = purified His-tagged recombinant mouse Nampt, substrate nicotinamide

synthesis of nicotinamide mononucleotide (NMN) from nicotinamide and PRPP [2]: robust synthesis
B1: Nampt: Bacterially produced, His-tagged recombinant mouse nicotinamide phosphoribosyltransferase (protein)
chain: MNAAAEAEFNILLATDSYKVTHYKQYPPNTSKVYSYFECREKKTENSKVRKVKYEETVFYGLQYILNKYLKGKVVTKEKIQEAKEVYREHFQDDVFNERGWNYILEKYDGHLPIEVKAVPEGSVIPRGNVLFTVENTDPECYWLTNWIETILVQSWYPITVATNSREQKKILAKYLLETSGNLDGLEYKLHDFGYRGVSSQETAGIGASAHLVNFKGTDTVAGIALIKKYYGTKDPVPGYSVPAAEHSTITAWGKDHEKDAFEHIVTQFSSVPVSVVSDSYDIYNACEKIWGEDLRHLIVSRSTEAPLIIRPDSGNPLDTVLKVLDILGKKFPVTENSKGYKLLPPYLRVIQGDGVDINTLQEIVEGMKQKKWSIENVSFGSGGALLQKLTRDLLNCSFKCSYVVTNGLGVNVFKDPVADPNKRSKKGRLSLHRTPAGNFVTLEEGKGDLEEYGHDLLHTVFKNGKVTKSYSFDEVRKNAQLNIEQDVAPH
kcat [1]: 0.035 s⁻¹
synthesis of nicotinamide mononucleotide (NMN) from nicotinamide and PRPP ([2]; listed as mouse Nampt): produced nicotinamide mononucleotide (NMN)
synthesis of nicotinic acid mononucleotide (NaMN) from nicotinic acid and PRPP ([2]; substrate specificity): failed to catalyze; also recorded: did not synthesize
catalytic efficiency of Nampt, fold less than that of Nmnat ([3]; Nampt (nicotinamide) versus Nmnat (NMN)): ~46 fold
Vmax [3, 5]: 0.021 µmol/min/mg
kcat [3, 5]: 0.020 s⁻¹
Km ([3]; purified His-tagged recombinant mouse Nampt, substrate nicotinamide, 37° C.): 0.92 µM
blood glucose levels ([4]; listed as recombinant Nampt): no significant effect
blood glucose levels ([4]; listed as recombinant Nampt protein): no decrease
